Experimental data as given in patent US5432264A (priority 1987, dated 1995).
Where two headings read alike, the source gives them in different places. Peptide text beside a SMILES is read from it. * marks the point of attachment. Cbz = O=C(OCc1ccccc1)*; CHN2 = [N-]=[N+]=C*

Experiments:
poliovirus type 1 = format: cell-based; conditions: 24 μg per disc, green monkey kidney cells infected with poliovirus type 1
[1] = tested on: herpes simplex virus type 1 (HSV); format: cell-based
[2] = tested on: poliovirus (Mahoney strain); format: cell-based, poliovirus type 1; conditions: for effect on poliovirus replication (in words): inhibitor added to cultivation medium; for Virus Yield: poliovirus type 1, multiplicity 1, 48 hrs at 37° C.
HSV type 1 (F strain) = format: cell-based; conditions: for Virus Yield: 48 hrs at 37° C.
[3] = biological target: cathepsin B (EC 3.4.22.1); experiment: Equilibrium constant for dissociation of inhibitor-enzyme complex, cathepsin B; format: binding
Procedure: (§1) Biological activity of 3-des-OH-cystatin C was determined through titration against concentration determined papain. The strength of binding 3-des-OH-cystatin on the cystein proteinases papain (EC 3.4.22.2), cathepsin B (EC 3.4.22.1) and dipeptidyl peptidases I (F.C 3.4.14.1) was determined. The equilibrium constant for dissociation of 3-des-OH-cystatinC enzyme complex (0.005 nM, 0.50 nM and 3.1 nM) was within the experimental error limit identical with the equilibrium constant for human cystatin C enzyme complex (<0.005 nM, 0.27 nM and 6.3 nM For papan, cathepsin B and dipeptidyl peptidases I, respectively).

[4] = biological target: dipeptidyl peptidases I (F.C 3.4.14.1); experiment: Equilibrium constant for dissociation of inhibitor-enzyme complex, dipeptidyl peptidase I; format: binding
Procedure: as §1

papain = experiment: Papain-inhibiting capacity by titration of active papain, substrate Z-Phe-Arg-NHMec; format: biochemical; conditions: papain-inhibiting capacity relative to molar cystatin C concentration; range over several preparations
Procedure: The papain-inhibiting capacity of recombinant 3-des-OH-cystatin C was compared with the corresponding activity of human cystatin C.
The human cystatin C was isolated from urine of patients with mixed glomerular-tubular proteinuria by ultrafiltration, ion-exchange chromatography and gel filtration as described in literature (ref. 2,3) and lyophilized. A total of ten different preparations of human cystatin C and 3-des-OH-cystatin C were tested for their cystein proteinase inhibitory capacity. The cystatin C and 3-des-OH-cystatin C preparations derived from human urine and recombinant technique, respectively, were individually dissolved in 0.15 mol/l ammonium bicarbonate. Cystatin C concentrations of the resulting solutions were determined by phys-ico-chemical and immuno-diffusion and quantitation of amino acids released at hydrolysis in 6 mol/l HCl). The cysteine proteinase inhibiting capacities of these solutions were determined by adding them to a solution of isolated papain (cf. ref. 4), a plant cysteine proteinase widely used as a model for cysteine proteinases in general, and then determining the residual proteolytic activity of the resulting mixtures.
The cysteine proteinase activities of the papain solution and the cystatin C-papain mixtures were determined using the fluorogenic substrate Z-Phe-Arg-NHMec (ref. 5). […]

`CC(C)C[C@H](NC(=O)OCc1ccccc1)C(=O)N[C@H](C(=O)NCC(=O)C=[N+]=[N-])C(C)C` [Z-LVG-CHN2, N-benzyloxycarbonyl-leucyl-valyl-glycine diazomethyl ketone, reference compound] (Cbz-Leu-Val-Gly-CHN2) was tested. Which “inhibition of plaque formation around disc” value (poliovirus type 1) did it give?
The value was “no inhibition of plaque formation”.

And the “inhibition of plaque formation around disc” value [1]?
Its value is “marked inhibition zones”.

And the “effect on poliovirus replication (in words)” value [2]?
Its value is “hardly significant”.

What about the “Virus Yield” value ([2]; 0.4 mM Z-LVG-CHN2 in 1% DMSO) of the same molecule?
The value was 4.8 × 10^7 pfu/ml.

And the “inhibition of HSV replication” value (HSV type 1 (F strain))?
Its value is > 99.9.

What about the “Virus Yield” value (HSV type 1 (F strain)) of the same molecule?
The value was 1.4 × 10^3.

B1: 3-des-OH-cystatin C: Recombinant 120 amino acid human cystatin C with non-hydroxylated Pro at position 3, expressed in E. coli (protein, UniProt P01034 27-146, looked up)
Cystatin-C: SSPGKPPRLVGGPMDASVEEEGVRRALDFAVGEYNKASNDMYHSRALQVVRARKQIVAGVNYFLDVELGRTTCTKTQPNLDNCPFHDQPHLKRKAFCSFQIYAVPWQGTMTLSKSTCQDA
modifications: non-hydroxylated Pro3
notes: Recombinant 120 amino acid human cystatin C with non-hydroxylated Pro at position 3, expressed in E. coli
With B1 as the molecule, how does the Kd [3] read?
The Kd was 0.5 nM.

What about the Kd [4] of the same molecule?
Its Kd is 3.1 nM.

What about the molar inhibitory capacity (papain) of the same molecule?
The molar inhibitory capacity was 83-98%.

And the “effect on poliovirus replication (in words)” value [2]?
Its value is “no influence on the replication of poliovirus”.

And the “Virus Yield” value ([2]; 0.10 mM cystatin C in MEM)?
The value was 1.1 × 10^8 pfu/ml.

What about the “effect on HSV replication (in words)” value (HSV type 1 (F strain)) of the same molecule?
Its value is “potent inhibitor of HSV replication”.

And the “Virus Yield” value (HSV type 1 (F strain))?
Its value is 2.4 × 10^3.

B2: human cystatin C: Native cystatin C isolated from human urine; mixture of 3-OH-Pro form and 3-des-OH form (protein, UniProt P01034 27-146, looked up)
Cystatin-C: SSPGKPPRLVGGPMDASVEEEGVRRALDFAVGEYNKASNDMYHSRALQVVRARKQIVAGVNYFLDVELGRTTCTKTQPNLDNCPFHDQPHLKRKAFCSFQIYAVPWQGTMTLSKSTCQDA
With B2 as the molecule, how does the Kd [3] read?
Its Kd is 0.27 nM.

What about the Kd [4] of the same molecule?
Its Kd is 6.3 nM.

And the molar inhibitory capacity (papain)?
Its molar inhibitory capacity is 5-55%.
